# Results: patent US20070224212A1 (Merck Sharp & Dohme, published 2007)
# Numbered stars: 1 amine (or outer) side, 2 acyl side, 3 side chain; on linkers, the order of the positions; unused ones are H or OH. Bridge positions count the residues as written; N and C are the ends. Square brackets hold non-standard residues; d marks the D form. Ends that are not written are not given here. I, II: the chains in the order shown. * marks the point of attachment. Cys(Acm) = Cys protected with acetamidomethyl (Acm), CC(=O)NCSC[C@H](N[*:1])C(=O)[*:2]; Biotin = O=C1N[C@H]2[C@H](CS[C@H]2CCCCC(=O)*)N1; Ttds = O=C(CCC(=O)[*:2])NCCCOCCOCCOCCCN[*:1]
# B1: (Biotin-CCIZN23)3 (peptide)
# peptide: Biotin-GCCGGIKKEIEAIKKEQEAIKKKIEAIEKEIEAQQHLLQLTVWGIKQLQARIL
# modifications: not fully specified (bridges); also: covalent homotrimer via three interchain disulfides
# B2: (CCS17N17)3 (peptide)
# peptide chain of the covalent trimer: Ac-CCGGIEKKIEAIEKKIEAIEKLLQLTVWGIKQLQARIL-NH2
# modifications: not fully specified (bridges); also: homotrimer of three chains, cysteine pairing not given here
# B3: (CCIZN17)3 (peptide)
# peptide: Ac-CCGGIKKEIEAIKKEQEAIKKKIEAIEKLLQLTVWGIKQLQARIL-NH2
# modifications: not fully specified (bridges); also: homotrimer of three chains, cysteine pairing not given here
# B4: (CCIZN13)3 (peptide)
# peptide: Ac-CCGGIKKEIEAIKKEQEAIKKKIEAIEKLLQLTVWGIKQLQ
# modifications: not fully specified (bridges); also: homotrimer of three chains, cysteine pairing not given here
# B5: (CCIZN17Ala4)3 (peptide)
# peptide: Ac-CCGGIKKEIEAIKKEQEAIKKKIEAIEKLLQLTVWGIKALAAAIA-NH2
# modifications: not fully specified (bridges); also: homotrimer of three chains, cysteine pairing not given here
# B6: ac-C(Acm)(thioS17N17)3 (peptide)
# peptide 1: CCCGGIEKKIEAIEKKIEAIEKLLQLTVWGIKQLQARIL
# peptide 2: GGGIEKKIEAIEKKIEAIEKLLQLTVWGIKQLQARIL
# modifications: N-terminal acetyl (from bromoacetyl) joined by a thioether bond to a Cys of the CC chain; N-terminal acetyl; Cys1 thiol protected with Acm; Ttds linker between Cys1 and Cys2; Cys2 and Cys3 each joined by a thioether bond to the N-terminal acetyl of a GGGS17N17 chain
# B7: (CCI10N17)3 (peptide)
# peptide: Ac-CCGGIKKKIEAIEKLLQLTVWGIKQLQARIL-NH2
# modifications: not fully specified (bridges); also: homotrimer of three chains, cysteine pairing not given here
# B8: NH2-C(Fm)(thioIZN17)3 (peptide)
# peptide 1: CCCGGIKKEIEAIKKEQEAIKKKIEAIEKLLQLTVWGIKQLQARIL
# peptide 2: GGGIKKEIEAIKKEQEAIKKKIEAIEKLLQLTVWGIKQLQARIL
# modifications: N-terminal acetyl (from bromoacetyl) joined by a thioether bond to a Cys of the CC chain; free N-terminal amine; Cys1 thiol protected with Fm; Ttds linker between Cys1 and Cys2; Cys2 and Cys3 each joined by a thioether bond to the N-terminal acetyl of a GGGIZN17 chain
# B9: ac-C(thioIZN17)3 (peptide)
# peptide 1: B8 peptide 1
# peptide 2: B8 peptide 2
# modifications: N-terminal acetyl (from bromoacetyl) joined by a thioether bond to a Cys of the CC chain; N-terminal acetyl; Cys1 free thiol; Ttds linker between Cys1 and Cys2; Cys2 and Cys3 each joined by a thioether bond to the N-terminal acetyl of a GGGIZN17 chain
# B10: ac-C(Acm)(thioIZN17)3 (peptide)
# peptide 1: B8 peptide 1
# peptide 2: B8 peptide 2
# modifications: N-terminal acetyl (from bromoacetyl) joined by a thioether bond to a Cys of the CC chain; N-terminal acetyl; Cys1 thiol protected with acetamidomethyl (Acm); Ttds linker between Cys1 and Cys2; Cys2 and Cys3 each joined by a thioether bond to the N-terminal acetyl of a GGGIZN17 chain
# B11: (I10N17CC)3 (peptide)
# peptide: IKKKIEAIEKLLQLTVWGIKQLQARILGGCC
# modifications: not fully specified (bridges); also: homotrimer of three chains, cysteine pairing not given here
# B12: ac-C(Acm)(thioE10N17)3 (peptide)
# peptide 1: Ac-[Cys(Acm)][Ttds]CCIEEKIEEIEELLQLTVWGIKQLQARIL
# peptide 2: Ac-GGGIEEKIEEIEELLQLTVWGIKQLQARIL
# modifications: bridge I:N-I:4; thioether (positions not given here); not fully specified (bridges); also: trimer, copy numbers of chains not given here
# Legend:
# Assay in all cases: cell-based or functional assay
# HIV-1 gp41 (strain HXB2) [1] = target: T1, HIV-1 gp41 (strain HXB2) (HIV-1 strain HXB2, UniProt P04578 512-856)
# HIV-1 gp41 (strain HXB2) [2] = target: T1, HIV-1 gp41 (strain HXB2); remark: listed apart in the source
# HIV-1 gp41 (strain 89.6) = HIV-1 gp41 (strain 89.6) (HIV-1 strain 89.6)
# HIV-1 gp41 (strain MN-1) = HIV-1 gp41 (strain MN-1) (HIV-1 strain MN-1, UniProt P05877 514-856)
# Sequence of HIV-1 gp41 (strain MN-1) (P05877 514-856 limits assumed): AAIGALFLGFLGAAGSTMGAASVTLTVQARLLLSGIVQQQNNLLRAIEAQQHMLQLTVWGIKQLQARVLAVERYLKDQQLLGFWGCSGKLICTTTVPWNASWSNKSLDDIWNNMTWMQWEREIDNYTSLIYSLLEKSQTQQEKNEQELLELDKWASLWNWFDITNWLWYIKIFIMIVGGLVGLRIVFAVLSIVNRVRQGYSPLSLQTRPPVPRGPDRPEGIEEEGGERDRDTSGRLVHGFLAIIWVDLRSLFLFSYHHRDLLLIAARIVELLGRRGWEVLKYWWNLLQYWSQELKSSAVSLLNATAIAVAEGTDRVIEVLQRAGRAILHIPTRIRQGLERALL
# [3] = target: HIV-1 gp41 (strain NL4-3) (HIV-1 strain NL4-3)
# gp41 of SHIV-89.6P = gp41 of SHIV-89.6P (SHIV-89.6P)
# HIV-1 gp41 (strain BaL) = HIV-1 gp41 (strain BaL) (HIV-1 strain BaL)
# HIV-1 gp41 (strain HXB2) [4] = target: T1, HIV-1 gp41 (strain HXB2); remark: listed apart in the source
binder,measurement,setting,value
B1,"IC50, single-cycle HIV infectivity assay",HIV-1 gp41 (strain HXB2) [1],0.316 nM
B2,"IC50, anti-viral activity against HIV-HXB2",HIV-1 gp41 (strain HXB2) [2],0.33 nM
Biotin-GGIKKEIEAIKKEQEAIKKKIEAIEKEIEAQQHLLQLTVWGIKQLQARIL [Biotin-IZN23],"IC50, single-cycle HIV infectivity assay",HIV-1 gp41 (strain HXB2) [1],2.17 nM
B3,"IC50, single-cycle HIV infectivity assay",HIV-1 gp41 (strain 89.6),8 nM
same,"IC50, single-cycle HIV infectivity assay",HIV-1 gp41 (strain MN-1),0.9 nM
same,"IC50, single-cycle HIV infectivity assay",[3],0.1 nM
same,"IC50, single-cycle HIV infectivity assay",gp41 of SHIV-89.6P,6.9 nM
same,"IC50, single-cycle HIV infectivity assay",HIV-1 gp41 (strain BaL),0.34 nM
same,"IC50, single-cycle HIV infectivity assay",HIV-1 gp41 (strain HXB2) [1],0.04 nM
same,"IC50, anti-viral assay against HIV-1 HXB2 (FIG. 13)",HIV-1 gp41 (strain HXB2) [4],0.132 nM
Ac-IKKEIEAIKKEQEAIKKKIEAIEKLLQLTVWGIKALAAAIA-NH2 [IZN17Ala4],"IC50, single-cycle infectivity assay, HIV-1 HXB2 (FIG. 12A)",HIV-1 gp41 (strain HXB2) [4],25 nM
same,"IC50, anti-viral activity against HIV-HXB2",HIV-1 gp41 (strain HXB2) [2],25.3 nM
B4,"IC50, antiviral activity against HIV HXB2 (FIG. 13)",HIV-1 gp41 (strain HXB2) [4],85.3 nM
B5,"IC50, anti-viral activity against HIV-HXB2",HIV-1 gp41 (strain HXB2) [2],47 nM
B6,"IC50, single cell infectivity assay, HIV-1 HXB2",HIV-1 gp41 (strain HXB2) [4],0.27 nM
B7,"IC50, anti-viral assay against HIV-1 HXB2 (FIG. 13)",HIV-1 gp41 (strain HXB2) [4],24 nM
same,"fold change of IC50 against (CCIZN17)3, anti-viral assay against HIV-1 HXB2 (FIG. 13)",HIV-1 gp41 (strain HXB2) [4],~150 fold
same,"fold change of IC50 against IZN17, anti-viral assay against HIV-1 HXB2 (FIG. 13)",HIV-1 gp41 (strain HXB2) [4],~10 fold
B8,"IC50, single cell infectivity assay, HIV-1 HXB2",HIV-1 gp41 (strain HXB2) [4],1.1 nM
B9,"IC50, anti-viral activity assay, HIV-HXB2",HIV-1 gp41 (strain HXB2) [4],0.24 nM
B10,"IC50, anti-viral activity against HIV-HXB2",HIV-1 gp41 (strain HXB2) [2],0.24 nM
B11,"IC50, anti-viral activity against HIV-HXB2",HIV-1 gp41 (strain HXB2) [2],77.6 nM
B12,"IC50, anti-viral activity against HIV-HXB2",HIV-1 gp41 (strain HXB2) [2],150 nM
Ac-IKKEIEAIKKEQEAIKKKIEAIEKLLQLTVWGIKQLQARIL-NH2 (also: non-covalent trimeric coiled-coil) [IZN17],"IC50, single-cycle HIV infectivity assay",HIV-1 gp41 (strain BaL),3.2 nM
same,"IC50, single-cycle HIV infectivity assay",HIV-1 gp41 (strain HXB2) [1],1.7 nM
same,"IC50, anti-viral assay against HIV-1 HXB2 (FIG. 13)",HIV-1 gp41 (strain HXB2) [4],1.68 nM
same,"IC50, single-cycle infectivity assay, HIV-1 HXB2",HIV-1 gp41 (strain HXB2) [4],0.2 nM
